Results taken from patent US20190077860A1 (EISAI R AND D MANAGEMENT, published 2019).

T1: human EphA10 extracellular region-SEAP-His protein (human, UniProt Q5JZY3 34-565)
T1 construct: extracellular domain; also called hEphA10-SEAP-His
T1 sequence (looked up): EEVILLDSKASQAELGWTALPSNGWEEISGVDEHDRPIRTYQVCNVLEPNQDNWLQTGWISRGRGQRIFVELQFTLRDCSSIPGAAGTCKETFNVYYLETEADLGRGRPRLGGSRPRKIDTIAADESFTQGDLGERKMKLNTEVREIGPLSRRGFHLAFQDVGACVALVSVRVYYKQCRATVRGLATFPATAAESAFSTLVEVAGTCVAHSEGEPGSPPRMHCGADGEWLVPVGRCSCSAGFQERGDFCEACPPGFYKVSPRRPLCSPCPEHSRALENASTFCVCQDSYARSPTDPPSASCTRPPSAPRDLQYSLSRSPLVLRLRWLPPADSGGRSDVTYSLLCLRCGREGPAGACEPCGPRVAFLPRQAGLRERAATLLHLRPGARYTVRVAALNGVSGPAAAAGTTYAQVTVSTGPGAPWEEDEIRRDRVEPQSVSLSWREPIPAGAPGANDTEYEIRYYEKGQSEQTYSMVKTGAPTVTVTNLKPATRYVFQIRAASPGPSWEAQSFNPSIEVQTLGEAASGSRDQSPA


Legend:
[1] = target: T2, human EphA4 extracellular region-SEAP-His protein (human, UniProt P54764 20-547); assay: competition ELISA, competitor human Ephrin A5-Fc
T2 construct: also called hEphA4-SEAP-His
T2 sequence (P54764 20-547): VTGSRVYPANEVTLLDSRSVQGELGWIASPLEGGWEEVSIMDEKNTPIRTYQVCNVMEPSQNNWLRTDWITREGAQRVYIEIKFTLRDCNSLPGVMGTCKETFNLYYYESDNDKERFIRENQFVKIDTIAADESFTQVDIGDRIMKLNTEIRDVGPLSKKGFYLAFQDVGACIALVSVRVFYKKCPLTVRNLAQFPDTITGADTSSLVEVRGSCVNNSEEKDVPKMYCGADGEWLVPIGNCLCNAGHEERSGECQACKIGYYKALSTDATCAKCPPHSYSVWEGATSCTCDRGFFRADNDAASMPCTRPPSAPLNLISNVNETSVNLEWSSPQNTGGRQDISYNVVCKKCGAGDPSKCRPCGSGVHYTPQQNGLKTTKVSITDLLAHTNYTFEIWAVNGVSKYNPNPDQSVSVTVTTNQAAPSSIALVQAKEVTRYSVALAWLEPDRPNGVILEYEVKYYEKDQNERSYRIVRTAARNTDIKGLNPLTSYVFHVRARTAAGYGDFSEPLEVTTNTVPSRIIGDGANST
How it was run: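 Ligand binding to captured receptor measured as A450 after HRP-streptavidin/TMBZ development and acid stop. Receptor fusion (10 nM final) was immobilised via anti-alkaline phosphatase antibody; biotinylated Ephrin A5-Fc (0.7 nM final) added together with antibody titrations from 0 to 3000 nM, 1 h, room temperature.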

[2] = target: T1, human EphA10 extracellular …; assay: ELISA
SEAP-His = SEAP-His (UniProt P05187 23-511); assay: ELISA
SEAP-His, sequence (P05187 23-511): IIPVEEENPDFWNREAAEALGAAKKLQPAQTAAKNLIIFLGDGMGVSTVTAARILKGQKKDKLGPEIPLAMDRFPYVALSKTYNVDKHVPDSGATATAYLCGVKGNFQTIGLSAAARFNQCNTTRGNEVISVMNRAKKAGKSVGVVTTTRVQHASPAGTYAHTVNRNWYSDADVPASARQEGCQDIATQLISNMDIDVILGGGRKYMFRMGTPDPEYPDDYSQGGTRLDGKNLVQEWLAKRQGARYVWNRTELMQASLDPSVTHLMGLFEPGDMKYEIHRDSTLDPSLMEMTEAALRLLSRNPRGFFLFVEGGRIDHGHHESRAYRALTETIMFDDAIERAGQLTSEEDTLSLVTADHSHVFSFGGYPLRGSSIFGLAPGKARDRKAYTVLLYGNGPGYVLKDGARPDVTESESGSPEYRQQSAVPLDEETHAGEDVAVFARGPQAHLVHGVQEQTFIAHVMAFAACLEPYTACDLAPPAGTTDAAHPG

[3] = target: T2, human EphA4 extracellular …; assay: SPR, Ab captured
How it was run: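 Affinity (KD=kd/ka) obtained by fitting SPR curves to a 1:1 model. Analyte was human EphA4 extracellular region-SEAP-His, injected sequentially from 0.6 to 50 nM in HBS-EP (120 s on, 900 s off), onto humanized antibodies on protein A or antibody A on anti-mouse IgG1 surfaces, capture level about 30–60 RU.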

Row | IC50 [1] | A450 as % of hEphA4-SEAP-His [2] | A450 as % of hEphA4-SEAP-His (SEAP-His) | Kd [3] | koff [3] | kon [3] | Binder
1 | 2.5 nM | 5.6% | 5.9% | 1.3 nM | 0.00039 s⁻¹ | 290000 M⁻¹ s⁻¹ | humanized antibody No. 137 (antibody, human IgG2, human Ig kappa; also called L2-4/HK4) heavy: QIQLVQSGSELKKPGASVKVSCKASGYTFTDYSMHWVRQAPGQGLKWMGWINTETGEPTYADDFKGRFVFSLDTSVSTAYLQISSLKAEDTAVYYCARIPLYYYGSRYWYFDVWGQGTTVTVSSASTKGPSVFPLAPSSRSTSESTAALGCLVKDYFPEPVTVSWNSGALTSGVHTFPAVLQSSGLYSLSSVVTVPSSNFGTQTYTCNVDHKPSNTKVDKTVERKSCVECPPCPAPPAAAPSVFLFPPKPKDTLMISRTPEVTCVVVDVSHEDPEVQFNWYVDGVEVHNAKTKPREEQFNSTFRVVSVLTVVHQDWLNGKEYKCKVSNKGLPAPIEKTISKTKGQPREPQVYTLPPSREEMTKNQVSLTCLVKGFYPSDIAVEWESNGQPENNYKTTPPMLDSDGSFFLYSKLTVDKSRWQQGNVFSCSVMHEALHNHYTQKSLSLSPG light: EIVMTQSPATLSVSPGERATLSCRASENIYRNLAWYQQKPGQSPRLLIYAATNLADGIPARFSGSGSGTEYTLTISSLQSEDFAVYYCQHFWGTPWTFGQGTKVEIKRTVAAPSVFIFPPSDEQLKSGTASVVCLLNNFYPREAKVQWKVDNALQSGNSQESVTEQDSKDSTYSLSSTLTLSKADYEKHKVYACEVTHQGLSSPVTKSFNRGEC
2 | 2.7 nM | 6.4% | 6.7% | 0.95 nM | 0.00024 s⁻¹ | 260000 M⁻¹ s⁻¹ | humanized antibody No. 94 (antibody, human IgG1, kappa, human Ig kappa; also called L2-4/HA2) heavy: QVQLVQSGSELKKPGASVKVSCKASGYTFTDYSMHWVRQAPGQGLKWMGWINTETGEPTYAQGFTGRFVFSLDTSVSTAYLQISSLKAEDTAVYYCARIPLYYYGSRYWYFDVWGQGTTVTVSSASTKGPSVFPLAPSSKSTSGGTAALGCLVKDYFPEPVTVSWNSGALTSGVHTFPAVLQSSGLYSLSSVVTVPSSSLGTQTYICNVNHKPSNTKVDKRVEPKSCDKTHTCPPCPAPPAAAPSVFLFPPKPKDTLMISRTPEVTCVVVDVSHEDPEVQFNWYVDGVEVHNAKTKPREEQFNSTFRVVSVLTVVHQDWLNGKEYKCKVSNKGLPAPIEKTISKTKGQPREPQVYTLPPSREEMTKNQVSLTCLVKGFYPSDIAVEWESNGQPENNYKTTPPMLDSDGSFFLYSKLTVDKSRWQQGNVFSCSVMHEALHNHYTQKSLSLSPG light: EIVMTQSPATLSVSPGERATLSCRASENIYRNLAWYQQKPGQSPRLLIYAATNLADGIPARFSGSGSGTEYTLTISSLQSEDFAVYYCQHFWGTPWTFGQGTKVEIKRTVAAPSVFIFPPSDEQLKSGTASVVCLLNNFYPREAKVQWKVDNALQSGNSQESVTEQDSKDSTYSLSSTLTLSKADYEKHKVYACEVTHQGLSSPVTKSFNRGEC
3 | 2.5 nM | 5.3% | 5.6% | 0.82 nM | 0.00023 s⁻¹ | 280000 M⁻¹ s⁻¹ | humanized antibody No. 71 (antibody, human IgG1, kappa, human Ig kappa; also called L2-4/HA4) heavy: QIQLVQSGSELKKPGASVKVSCKASGYTFTDYSMHWVRQAPGQGLKWMGWINTETGEPTYAQGFTGRFVFSLDTSVSTAYLQISSLKAEDTAVYYCARIPLYYYGSRYWYFDVWGQGTTVTVSSASTKGPSVFPLAPSSKSTSGGTAALGCLVKDYFPEPVTVSWNSGALTSGVHTFPAVLQSSGLYSLSSVVTVPSSSLGTQTYICNVNHKPSNTKVDKRVEPKSCDKTHTCPPCPAPPAAAPSVFLFPPKPKDTLMISRTPEVTCVVVDVSHEDPEVQFNWYVDGVEVHNAKTKPREEQFNSTFRVVSVLTVVHQDWLNGKEYKCKVSNKGLPAPIEKTISKTKGQPREPQVYTLPPSREEMTKNQVSLTCLVKGFYPSDIAVEWESNGQPENNYKTTPPMLDSDGSFFLYSKLTVDKSRWQQGNVFSCSVMHEALHNHYTQKSLSLSPG light: EIVMTQSPATLSVSPGERATLSCRASENIYRNLAWYQQKPGQSPRLLIYAATNLADGIPARFSGSGSGTEYTLTISSLQSEDFAVYYCQHFWGTPWTFGQGTKVEIKRTVAAPSVFIFPPSDEQLKSGTASVVCLLNNFYPREAKVQWKVDNALQSGNSQESVTEQDSKDSTYSLSSTLTLSKADYEKHKVYACEVTHQGLSSPVTKSFNRGEC
